# Results reported in paper doi:10.1101/2019.12.11.872267 (bioRxiv, 2019).
# B1: Drosophila P5CS, purified from E. coli (enzyme, UniProt Q9VNW6 1-776, looked up)
# chain: MLQNSFKLAQSLRNGFYRNAWRAFSSHGPRQPLVSPERRLEKAHPTFTERSQLKYARRLVVKLGSAVITREDNHGLALGRLASIVEQVAECHLEGREVMMVTSGAVAFGKQKLAQELLMSLSMRETLNPKDSKEFDGATLEPRAAAAVGQSGLMSLYDAMFAQYGVKIAQVLVTKPDFYNEETRNNLFCTLSELISLNIVPIINTNDAVSPPMFIRDDEPAGGARRGIPIKDNDSLSAMLAAEVQADLLILMSDVDGIYNKPPWEDGAKLMHTYTSDDSNSIEFGKKSKVGTGGMDSKVKAATWALDRGVSVVICNGMQEKAIKTIIGGRKVGTFFTEATESANAVPVEVMAENARTGSRQMQALTPAQRASAVNTLADLLVSREKFILDANAKDLAEAQKSGLAKPLLSRLSLNPAKLKNLSVGLKQIAEDSHKNVGRVLRRTRLADQLELKQVTVPIGVLLVIFESRPDSLPQVAALAMASANGLLLKGGKEAAHSNKALMELVKEALATVGAEHAVSLVSTREEISDLLSMENHIDLIIPRGSSDLVRSIQQQSLHIPVLGHAEGVCHVYIDRDADLEKALRIARDAKCDYPAACNAMETLLIHEDLMSGAIFGDVCNMLKREGVKIYAGPRLNQQLTFGPPAAKSLKHEYGALECCIEVVPSLDEAINHIHTYGSSHTDVIVTENDAAARQFLGSVDSACVFHNASSRFADGFRFGLGAEVGISTARIHARGPVGVEGLLTTKWILEGQDHAAADFAEGGGRTWLHETLPLD
# Molecular target: the molecule itself
# Assay: negative stain electron microscopy
protein,measurement,value
B1,binding result,binds
